# B1: ST: small T (SV40 small T antigen) expressed from pCMV5; may influence the association between the scaffold subunit and the regulatory subunit (protein, UniProt P03081 1-174, looked up)
# Small t antigen: MDKVLNREESLQLMDLLGLERSAWGNIPLMRKAYLKKCKEFHPDKGGDEEKMKKMNTLYKKMEDGVKYAHQPDFGGFWDATEVFASSLNPGVDAMYCKQWPECAKKMSANCICLLCLLRMKHENRKLYRKDPLVWVDCYCFDCFRMWFGLDLCEGTLLLWCDIIGQTTYRDLKL
# What was measured:
# [1] = target: T1, PP2A subunits Aα, Cα and B55β2 (Homo sapiens, UniProt P30153+P67775); test: BiFC-based FRET fluorescence of PP2A holoenzyme assembly (YFPN-Aα+Cα-YFPC+B55β2-CFP) in transfected NIH3T3 cells; format: cell-based; settings: NIH3T3 cells co-transfected with YFPN-Aα+Cα-YFPC+B55β2-CFP plus test plasmid; FIG. 4
# T1 construct: FLAG; HA (N); Flag; expressed in transfected cells; host or cells: NIH3T3 (mouse embryonic fibroblast cell line)
# Experimental: (§1) In the following embodiments of the present invention, NIH3T3 cells (mouse embryonic fibroblast cell line) was used, which was cultured in Dulbecco's modified Eagle's medium (DMEM) supplemented with 10% bovine serum (BS), 1% Penicillin (10 U/μl)/Streptomycin (10 μg/μl), and 1% L-Glutamine (200 mM). All of the reagents were available from GIBCO.
# (§2) NIH3T3 cells were seeded into proper dishes one day before transfection. For example, 7×10^4 cells were seeded in each well of a 24-well plate; 10^6 cells were seeded in a 6 cm dish; and 3×10^6 cells were seeded in a 10 cm dish. […]
# (§3) After 24 hrs, cells were washed with PBS buffer three times and fixed by 4% paraformaldehyde/0.025% glutaraldehyde for 15 ruin. […] The cells were observed by fluorescence microscopy (Zeiss, Axio observer Z1). […]
# (§4) In the present embodiment, the plasmids of the following experimental groups were transfected into NIH3T3 cells with the aforementioned transfection process, and the cover glasses used in the present embodiment were prepared with the same process described in Embodiment 1. The cells were observed by fluorescence microscopy (Zeiss, Axio observer Z1), and the fluorescence and fluorescent efficiency generated from cells were programmed by Zeiss AxioVision complied with Youvan's method. […]
# [2] = target: T2, PP2A subunits B56γ3, Aα and Cα (Homo sapiens, UniProt P30153+P67775); test: BiFC-based FRET fluorescence of PP2A holoenzyme assembly (YFPN-B56γ3+YFPC-Aα+CFP-Cα) in transfected NIH3T3 cells; format: cell-based; settings: NIH3T3 cells co-transfected with YFPN-B56γ3+YFPC-Aα+CFP-Cα plus test plasmid; FIG. 3
# T2 construct: HA; Flag; expressed in transfected cells; host or cells: NIH3T3 (mouse embryonic fibroblast cell line)
# Experimental: as §1, §2, §3, §4
# T2 sequence (P30153 whole entry): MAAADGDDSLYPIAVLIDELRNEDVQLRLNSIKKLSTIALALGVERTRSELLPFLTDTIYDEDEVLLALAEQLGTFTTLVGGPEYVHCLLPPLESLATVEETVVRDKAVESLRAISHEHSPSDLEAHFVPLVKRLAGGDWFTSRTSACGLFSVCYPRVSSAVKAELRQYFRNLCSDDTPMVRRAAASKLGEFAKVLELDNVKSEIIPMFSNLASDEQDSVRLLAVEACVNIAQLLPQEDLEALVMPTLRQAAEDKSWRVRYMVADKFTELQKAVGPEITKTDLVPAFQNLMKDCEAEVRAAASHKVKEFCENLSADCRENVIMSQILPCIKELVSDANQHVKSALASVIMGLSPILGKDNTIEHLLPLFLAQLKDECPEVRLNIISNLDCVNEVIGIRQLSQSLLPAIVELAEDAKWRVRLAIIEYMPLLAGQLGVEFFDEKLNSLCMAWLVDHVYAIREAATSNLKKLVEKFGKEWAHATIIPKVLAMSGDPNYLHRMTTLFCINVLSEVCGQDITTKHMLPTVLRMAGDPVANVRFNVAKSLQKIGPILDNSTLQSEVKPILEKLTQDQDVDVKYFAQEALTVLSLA
# T2 sequence (P67775 whole entry): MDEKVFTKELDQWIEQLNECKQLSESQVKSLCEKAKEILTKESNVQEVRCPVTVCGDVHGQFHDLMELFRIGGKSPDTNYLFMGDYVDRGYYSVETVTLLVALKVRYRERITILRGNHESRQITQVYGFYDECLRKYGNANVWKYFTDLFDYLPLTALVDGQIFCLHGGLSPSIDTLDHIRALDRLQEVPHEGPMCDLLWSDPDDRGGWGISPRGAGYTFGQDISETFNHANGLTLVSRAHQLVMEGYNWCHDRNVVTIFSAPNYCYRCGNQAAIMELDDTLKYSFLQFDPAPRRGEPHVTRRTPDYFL
# T1 sequence (P30153 whole entry): as the sequence (P30153 whole entry) above
# T1 sequence (P67775 whole entry): as the sequence (P67775 whole entry) above
molecule,measurement,setting,value
B1,fluorescence and efficiency generated from cells (association between subunits A and B),[1],only generated weak fluorescence and efficiency
same,fluorescence generated from cells (association between subunits A and B),[2],did not generate any fluorescence
